Source: patent publication US20260201008A1, “SECRETIN-DERIVED GLP1R SELECTIVE AGONISTS” (GUBRA A/S, priority 2023, published 2026)
Where two headings read alike, the source gives them in different places. Numbered stars: 1 amine (or outer) side, 2 acyl side, 3 side chain; on linkers, the order of the positions; unused ones are H or OH. Square brackets hold non-standard residues; d marks the D form. Side chains are listed from the residue outwards. Ends that are not written are not given here. * marks the point of attachment. C20 diacid = O=C(O)CCCCCCCCCCCCCCCCCCC(=O)*; γGlu = O=C(O)[C@H](CCC(=O)[*:2])N[*:1]; AEEA = NCCOCCOCC(=O)O; Aib = CC(C)(N)C(=O)O

B1: SEQ ID NO: 217 (peptide)
peptide: H[Aib]EGTFTSDYSRLLEGAALQRFIQWLV-NH2
modifications: N-terminus assumed
SMILES: CC[C@H](C)[C@H](NC(=O)[C@H](Cc1ccccc1)NC(=O)[C@H](CCCNC(=N)N)NC(=O)[C@H](CCC(N)=O)NC(=O)[C@H](CC(C)C)NC(=O)[C@H](C)NC(=O)[C@H](C)NC(=O)CNC(=O)[C@H](CCC(=O)O)NC(=O)[C@H](CC(C)C)NC(=O)[C@H](CC(C)C)NC(=O)[C@H](CCCNC(=N)N)NC(=O)[C@H](CO)NC(=O)[C@H](Cc1ccc(O)cc1)NC(=O)[C@H](CC(=O)O)NC(=O)[C@H](CO)NC(=O)[C@@H](NC(=O)[C@H](Cc1ccccc1)NC(=O)[C@@H](NC(=O)CNC(=O)[C@H](CCC(=O)O)NC(=O)C(C)(C)NC(=O)[C@@H](N)Cc1c[nH]cn1)[C@@H](C)O)[C@@H](C)O)C(=O)N[C@@H](CCC(N)=O)C(=O)N[C@@H](Cc1c[nH]c2ccccc12)C(=O)N[C@@H](CC(C)C)C(=O)N[C@H](C(N)=O)C(C)C
B2: SEQ ID NO: 229 (peptide)
peptide: H[Aib]EGTFTSDLSYLLEGAALQRFIQWLV-NH2
modifications: N-terminus assumed
SMILES: CC[C@H](C)[C@H](NC(=O)[C@H](Cc1ccccc1)NC(=O)[C@H](CCCNC(=N)N)NC(=O)[C@H](CCC(N)=O)NC(=O)[C@H](CC(C)C)NC(=O)[C@H](C)NC(=O)[C@H](C)NC(=O)CNC(=O)[C@H](CCC(=O)O)NC(=O)[C@H](CC(C)C)NC(=O)[C@H](CC(C)C)NC(=O)[C@H](Cc1ccc(O)cc1)NC(=O)[C@H](CO)NC(=O)[C@H](CC(C)C)NC(=O)[C@H](CC(=O)O)NC(=O)[C@H](CO)NC(=O)[C@@H](NC(=O)[C@H](Cc1ccccc1)NC(=O)[C@@H](NC(=O)CNC(=O)[C@H](CCC(=O)O)NC(=O)C(C)(C)NC(=O)[C@@H](N)Cc1c[nH]cn1)[C@@H](C)O)[C@@H](C)O)C(=O)N[C@@H](CCC(N)=O)C(=O)N[C@@H](Cc1c[nH]c2ccccc12)C(=O)N[C@@H](CC(C)C)C(=O)N[C@H](C(N)=O)C(C)C
B3: SEQ ID NO: 226 (peptide)
peptide: H[Aib]EGTFTSDLSGLLEGAALQRFIQWLV-NH2
modifications: N-terminus assumed
SMILES: CC[C@H](C)[C@H](NC(=O)[C@H](Cc1ccccc1)NC(=O)[C@H](CCCNC(=N)N)NC(=O)[C@H](CCC(N)=O)NC(=O)[C@H](CC(C)C)NC(=O)[C@H](C)NC(=O)[C@H](C)NC(=O)CNC(=O)[C@H](CCC(=O)O)NC(=O)[C@H](CC(C)C)NC(=O)[C@H](CC(C)C)NC(=O)CNC(=O)[C@H](CO)NC(=O)[C@H](CC(C)C)NC(=O)[C@H](CC(=O)O)NC(=O)[C@H](CO)NC(=O)[C@@H](NC(=O)[C@H](Cc1ccccc1)NC(=O)[C@@H](NC(=O)CNC(=O)[C@H](CCC(=O)O)NC(=O)C(C)(C)NC(=O)[C@@H](N)Cc1c[nH]cn1)[C@@H](C)O)[C@@H](C)O)C(=O)N[C@@H](CCC(N)=O)C(=O)N[C@@H](Cc1c[nH]c2ccccc12)C(=O)N[C@@H](CC(C)C)C(=O)N[C@H](C(N)=O)C(C)C
B4: SEQ ID NO: 223 (peptide)
peptide: H[Aib]EGTFTSDLS[Aib]LLEGAALQRFIQWLV-NH2
modifications: N-terminus assumed
SMILES: CC[C@H](C)[C@H](NC(=O)[C@H](Cc1ccccc1)NC(=O)[C@H](CCCNC(=N)N)NC(=O)[C@H](CCC(N)=O)NC(=O)[C@H](CC(C)C)NC(=O)[C@H](C)NC(=O)[C@H](C)NC(=O)CNC(=O)[C@H](CCC(=O)O)NC(=O)[C@H](CC(C)C)NC(=O)[C@H](CC(C)C)NC(=O)C(C)(C)NC(=O)[C@H](CO)NC(=O)[C@H](CC(C)C)NC(=O)[C@H](CC(=O)O)NC(=O)[C@H](CO)NC(=O)[C@@H](NC(=O)[C@H](Cc1ccccc1)NC(=O)[C@@H](NC(=O)CNC(=O)[C@H](CCC(=O)O)NC(=O)C(C)(C)NC(=O)[C@@H](N)Cc1c[nH]cn1)[C@@H](C)O)[C@@H](C)O)C(=O)N[C@@H](CCC(N)=O)C(=O)N[C@@H](Cc1c[nH]c2ccccc12)C(=O)N[C@@H](CC(C)C)C(=O)N[C@H](C(N)=O)C(C)C
B5: SEQ ID NO: 225 (peptide)
peptide: H[Aib]EGTFTSDLSFLLEGAALQRFIQWLV-NH2
modifications: N-terminus assumed
SMILES: CC[C@H](C)[C@H](NC(=O)[C@H](Cc1ccccc1)NC(=O)[C@H](CCCNC(=N)N)NC(=O)[C@H](CCC(N)=O)NC(=O)[C@H](CC(C)C)NC(=O)[C@H](C)NC(=O)[C@H](C)NC(=O)CNC(=O)[C@H](CCC(=O)O)NC(=O)[C@H](CC(C)C)NC(=O)[C@H](CC(C)C)NC(=O)[C@H](Cc1ccccc1)NC(=O)[C@H](CO)NC(=O)[C@H](CC(C)C)NC(=O)[C@H](CC(=O)O)NC(=O)[C@H](CO)NC(=O)[C@@H](NC(=O)[C@H](Cc1ccccc1)NC(=O)[C@@H](NC(=O)CNC(=O)[C@H](CCC(=O)O)NC(=O)C(C)(C)NC(=O)[C@@H](N)Cc1c[nH]cn1)[C@@H](C)O)[C@@H](C)O)C(=O)N[C@@H](CCC(N)=O)C(=O)N[C@@H](Cc1c[nH]c2ccccc12)C(=O)N[C@@H](CC(C)C)C(=O)N[C@H](C(N)=O)C(C)C
B6: SEQ ID NO: 224 (peptide)
peptide: H[Aib]EGTFTSDLSELLEGAALQRFIQWLV-NH2
modifications: N-terminus assumed
SMILES: CC[C@H](C)[C@H](NC(=O)[C@H](Cc1ccccc1)NC(=O)[C@H](CCCNC(=N)N)NC(=O)[C@H](CCC(N)=O)NC(=O)[C@H](CC(C)C)NC(=O)[C@H](C)NC(=O)[C@H](C)NC(=O)CNC(=O)[C@H](CCC(=O)O)NC(=O)[C@H](CC(C)C)NC(=O)[C@H](CC(C)C)NC(=O)[C@H](CCC(=O)O)NC(=O)[C@H](CO)NC(=O)[C@H](CC(C)C)NC(=O)[C@H](CC(=O)O)NC(=O)[C@H](CO)NC(=O)[C@@H](NC(=O)[C@H](Cc1ccccc1)NC(=O)[C@@H](NC(=O)CNC(=O)[C@H](CCC(=O)O)NC(=O)C(C)(C)NC(=O)[C@@H](N)Cc1c[nH]cn1)[C@@H](C)O)[C@@H](C)O)C(=O)N[C@@H](CCC(N)=O)C(=O)N[C@@H](Cc1c[nH]c2ccccc12)C(=O)N[C@@H](CC(C)C)C(=O)N[C@H](C(N)=O)C(C)C
B7: SEQ ID NO: 213 (peptide)
peptide: H[Aib]EGTFTSDVSYLLEEA[Aib]LQRFLEK([AEEA-AEEA-γGlu-C20 diacid])LVEAA-NH2
modifications: N-terminus assumed
SMILES: CC(C)C[C@H](NC(=O)[C@H](CC(C)C)NC(=O)[C@H](Cc1ccc(O)cc1)NC(=O)[C@H](CO)NC(=O)[C@@H](NC(=O)[C@H](CC(=O)O)NC(=O)[C@H](CO)NC(=O)[C@@H](NC(=O)[C@H](Cc1ccccc1)NC(=O)[C@@H](NC(=O)CNC(=O)[C@H](CCC(=O)O)NC(=O)C(C)(C)NC(=O)[C@@H](N)Cc1c[nH]cn1)[C@@H](C)O)[C@@H](C)O)C(C)C)C(=O)N[C@@H](CCC(=O)O)C(=O)N[C@@H](CCC(=O)O)C(=O)N[C@@H](C)C(=O)NC(C)(C)C(=O)N[C@@H](CC(C)C)C(=O)N[C@@H](CCC(N)=O)C(=O)N[C@@H](CCCNC(=N)N)C(=O)N[C@@H](Cc1ccccc1)C(=O)N[C@@H](CC(C)C)C(=O)N[C@@H](CCC(=O)O)C(=O)N[C@@H](CCCCNC(=O)COCCOCCNC(=O)COCCOCCNC(=O)CC[C@H](NC(=O)CCCCCCCCCCCCCCCCCCC(=O)O)C(=O)O)C(=O)N[C@@H](CC(C)C)C(=O)N[C@H](C(=O)N[C@@H](CCC(=O)O)C(=O)N[C@@H](C)C(=O)N[C@@H](C)C(N)=O)C(C)C
B8: SEQ ID NO: 227 (peptide)
peptide: H[Aib]EGTFTSDLSVLLEGAALQRFIQWLV-NH2
modifications: N-terminus assumed
SMILES: CC[C@H](C)[C@H](NC(=O)[C@H](Cc1ccccc1)NC(=O)[C@H](CCCNC(=N)N)NC(=O)[C@H](CCC(N)=O)NC(=O)[C@H](CC(C)C)NC(=O)[C@H](C)NC(=O)[C@H](C)NC(=O)CNC(=O)[C@H](CCC(=O)O)NC(=O)[C@H](CC(C)C)NC(=O)[C@H](CC(C)C)NC(=O)[C@@H](NC(=O)[C@H](CO)NC(=O)[C@H](CC(C)C)NC(=O)[C@H](CC(=O)O)NC(=O)[C@H](CO)NC(=O)[C@@H](NC(=O)[C@H](Cc1ccccc1)NC(=O)[C@@H](NC(=O)CNC(=O)[C@H](CCC(=O)O)NC(=O)C(C)(C)NC(=O)[C@@H](N)Cc1c[nH]cn1)[C@@H](C)O)[C@@H](C)O)C(C)C)C(=O)N[C@@H](CCC(N)=O)C(=O)N[C@@H](Cc1c[nH]c2ccccc12)C(=O)N[C@@H](CC(C)C)C(=O)N[C@H](C(N)=O)C(C)C
B9: SEQ ID NO: 228 (peptide)
peptide: H[Aib]EGTFTSDLSWLLEGAALQRFIQWLV-NH2
modifications: N-terminus assumed
SMILES: CC[C@H](C)[C@H](NC(=O)[C@H](Cc1ccccc1)NC(=O)[C@H](CCCNC(=N)N)NC(=O)[C@H](CCC(N)=O)NC(=O)[C@H](CC(C)C)NC(=O)[C@H](C)NC(=O)[C@H](C)NC(=O)CNC(=O)[C@H](CCC(=O)O)NC(=O)[C@H](CC(C)C)NC(=O)[C@H](CC(C)C)NC(=O)[C@H](Cc1c[nH]c2ccccc12)NC(=O)[C@H](CO)NC(=O)[C@H](CC(C)C)NC(=O)[C@H](CC(=O)O)NC(=O)[C@H](CO)NC(=O)[C@@H](NC(=O)[C@H](Cc1ccccc1)NC(=O)[C@@H](NC(=O)CNC(=O)[C@H](CCC(=O)O)NC(=O)C(C)(C)NC(=O)[C@@H](N)Cc1c[nH]cn1)[C@@H](C)O)[C@@H](C)O)C(=O)N[C@@H](CCC(N)=O)C(=O)N[C@@H](Cc1c[nH]c2ccccc12)C(=O)N[C@@H](CC(C)C)C(=O)N[C@H](C(N)=O)C(C)C

How the values were obtained:
Experiment in all cases: cell-based or functional assay
[1] = target: T1, human secretin receptor (hSCTR) (human, UniProt P47872 23-440)
[2] = target: T2, human GLP-1 receptor (hGLP1R) (human, UniProt P43220 24-463)
[3] = target: T1, human secretin receptor (hSCTR); remark: listed apart in the source
[4] = target: T2, human GLP-1 receptor (hGLP1R); remark: listed apart in the source
[5] = target: T1, human secretin receptor (hSCTR); remark: listed apart in the source
[6] = target: T2, human GLP-1 receptor (hGLP1R); remark: listed apart in the source
[7] = target: T1, human secretin receptor (hSCTR); remark: listed apart in the source

T1 sequence (P47872 23-440): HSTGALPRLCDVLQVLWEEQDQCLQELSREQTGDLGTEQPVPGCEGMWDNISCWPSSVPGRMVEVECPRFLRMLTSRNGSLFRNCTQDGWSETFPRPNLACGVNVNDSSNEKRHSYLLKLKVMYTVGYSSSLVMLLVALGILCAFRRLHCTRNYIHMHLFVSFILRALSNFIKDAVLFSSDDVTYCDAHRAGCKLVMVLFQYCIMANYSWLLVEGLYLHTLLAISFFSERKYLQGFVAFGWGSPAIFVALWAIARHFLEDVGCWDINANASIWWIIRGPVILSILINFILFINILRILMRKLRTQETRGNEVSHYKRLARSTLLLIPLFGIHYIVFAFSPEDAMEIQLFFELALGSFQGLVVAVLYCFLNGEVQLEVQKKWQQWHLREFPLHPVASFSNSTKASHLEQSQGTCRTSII

Binder | pEC50 hGLPR1 [2] | pEC50 hSCTR [3] | further results
B1 |  |  | pEC50 hSCTR [1]: 8.8 -log M
B2 | 10.8 -log M | 8 -log M | 
B3 | 10.5 -log M | 8.3 -log M | 
B4 | 10.2 -log M | 8.3 -log M | 
B5 | 10.6 -log M | 8.1 -log M | 
B6 | 10.9 -log M | 8.8 -log M | 
B7 |  |  | PEC50 hGLPR1 [4]: 10.8 -log M; pEC50 hSCTR [5]: 6 -log M; hGLPR1 EC50 nM (purified peptide) [6]: 0.014 nM; hGLPR1 PEC50 (purified peptide) [6]: 10.9 -log M; hSCTR EC50 nM (purified peptide) [7]: 890 nM; hSCTR pEC50 (purified peptide) [7]: 6.1 -log M
B8 | 10.5 -log M | 8.9 -log M | 
B9 | 10.8 -log M | 9.1 -log M | 
